Positions count from the first letter of the chain named. Numbers in names are those of the source. One block for each binder: values may come before it.
Legend:
[1] = biological target: T1, factor Xa (human, UniProt P00742 41-179; P00742 235-488, limits assumed); test: heparin cofactor assay, HCA expt #3; ATIII titrated on 10 nM fXa + 50 ug/ml UFH, chromogenic readout
T1 construct: Active factor Xa has a light and a heavy chain; also called fXa
Method: (§1) After 3 minutes, the reactions were quenched with polybrene and chromogenic substrate S2238 (thrombin) or S2765 (fXa), and the initial rate of chromophore production (405 nm) recorded to obtain a measurement residual, uninhibited thrombin or factor Xa. IC50s were determined from plots of ATIII concentration vs. percent residual target enzyme activity.

[2] = biological target: T2, thrombin (human, UniProt P00734 328-622); test: cell-based or functional assay
[3] = biological target: T1, factor Xa; test: cell-based or functional assay
[4] = biological target: T2, thrombin; test: heparin cofactor assay, HCA expt #3; ATIII titrated on 10 nM thrombin + 50 ug/ml UFH, chromogenic readout
Method: as §1

[5] = biological target: T2, thrombin; test: heparin cofactor assay, HCA expt #2; ATIII titrated on 10 nM thrombin + 50 ug/ml UFH, chromogenic readout
Method: as §1

[6] = biological target: T1, factor Xa; test: heparin cofactor assay, HCA expt #2; ATIII titrated on 10 nM fXa + 50 ug/ml UFH, chromogenic readout
Method: as §1

T1 sequence (P00742 41-179 limits assumed, form in doubt, chain 1 of 2): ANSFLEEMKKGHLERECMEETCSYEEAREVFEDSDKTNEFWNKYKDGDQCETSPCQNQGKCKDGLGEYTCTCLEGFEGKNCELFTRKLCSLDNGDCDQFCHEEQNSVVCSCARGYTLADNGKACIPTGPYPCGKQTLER
T1 sequence (P00742 235-488 limits assumed, form in doubt, chain 2 of 2): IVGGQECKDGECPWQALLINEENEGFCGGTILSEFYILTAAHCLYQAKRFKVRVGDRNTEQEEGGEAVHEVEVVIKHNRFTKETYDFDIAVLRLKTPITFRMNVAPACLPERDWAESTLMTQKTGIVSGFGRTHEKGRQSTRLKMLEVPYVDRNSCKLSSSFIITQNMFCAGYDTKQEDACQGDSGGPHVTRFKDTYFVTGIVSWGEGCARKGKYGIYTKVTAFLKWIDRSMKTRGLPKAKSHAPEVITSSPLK

IC50 [1]: 24 nM
Rsd. IIa No add; CA expt #8; stg1 conc 200 [2]: 12 % of activity without ATIII
rsd. IIa catG; CA expt #8; stg1 conc 200 [2]: 14 % of activity without ATIII
rsd. IIa hne; CA expt #8; stg1 conc 200 [2]: 46 % of activity without ATIII
rsd. Xa catG; CA expt #8; stg1 conc 200 [3]: 1 % of activity without ATIII
rsd. Xa hne; CA expt #8; stg1 conc 200 [3]: 2 % of activity without ATIII
rsd. Xa no add; CA expt #8; stg1 conc 200 [3]: 1 % of activity without ATIII
IC50 [4]: 750 nM
B1: 7EVEA.452 (other)
chain: SPVDICTAKPRDIPMNPMCIYRSPEKKATEDEGSEQKIPEATNRRVWELSKANSRFATTFYQHLADSKNDNDNIFLSPLSISTAFAMTKLGACNDTLQQLMEVFKFDTISEKTSDQIHFFFAKLNCRLYRKANKASKLVSANRLFGDKSLTFNETYQDISELVYGAKLQPLDFKENAEQSRAAINKWVSNKTEGRITDVIPSEAINELTVLVLVNTIYFKGLWKSKFSPENTRKELFYKADGESCSASMMYQEGKFRYRRVAEGTQVLELPFKGDDITMVLILPKPEKSLAKVEKELTPEVLQEWLDELEEMMLVVHMPRFRIEDGFSLKEQLQDMGLVDLFSPEKSKLPGIVAEGRDDLYVSDAFHKAFLEVNEEGSEAAASTEVELAGRSLNPNRVTFKANRPFLVFIREVPLNTIIFMGRVANPCVK
modifications: N-linked glycans added by Drosophila S2 cells; not carried by the letters
notes: Made in Drosophila S2 cells (DES) on the S137A background; N-terminus printed as SPVDI---

IC50 [5]: 400 nM
IC50 [1]: 50 nM
IC50 [6]: 38 nM
Rsd. IIa No add; CA expt #8; stg1 conc 200 [2]: 6 % of activity without ATIII
rsd. IIa catG; CA expt #8; stg1 conc 200 [2]: 7 % of activity without ATIII
rsd. IIa hne; CA expt #8; stg1 conc 200 [2]: 12 % of activity without ATIII
rsd. Xa catG; CA expt #8; stg1 conc 200 [3]: 1 % of activity without ATIII
rsd. Xa hne; CA expt #8; stg1 conc 200 [3]: 1 % of activity without ATIII
rsd. Xa no add; CA expt #8; stg1 conc 200 [3]: 1 % of activity without ATIII
IC50 [4]: 450 nM
B2: 7EVEA.451 (other)
chain: B1 chain with L388I
modifications: N-linked glycans added by Drosophila S2 cells; not carried by the letters
notes: as for B1

IC50 [1]: 20 nM
Rsd. IIa No add; CA expt #8; stg1 conc 200 [2]: 23 % of activity without ATIII
rsd. IIa catG; CA expt #8; stg1 conc 200 [2]: 93 % of activity without ATIII
rsd. IIa hne; CA expt #8; stg1 conc 200 [2]: 53 % of activity without ATIII
rsd. Xa catG; CA expt #8; stg1 conc 200 [3]: 2 % of activity without ATIII
rsd. Xa hne; CA expt #8; stg1 conc 200 [3]: 1 % of activity without ATIII
rsd. Xa no add; CA expt #8; stg1 conc 200 [3]: 1 % of activity without ATIII
IC50 [4]: 610 nM
B3: 7EVEA.454 (other)
chain: B1 chain with L388W
modifications: N-linked glycans added by Drosophila S2 cells; not carried by the letters
notes: as for B1
